Our source for the IC50 (read off the curve) and EC50 (read off the curve) values is patent US20250264433A1.

Assay [1] concerns the target EspB cyclic peptide #50 (positions 197-211) (Enteropathogenic Escherichia coli (EPEC)). In words: ELISA, plate coated with peptide #50, serially diluted mAb, anti-human IgG-HRP.
In assay [2] the target is EspB cyclic peptide #49 (positions 193-207) (Enteropathogenic Escherichia coli (EPEC)). In words: ELISA, plate coated with peptide #49, serially diluted mAb, anti-human IgG-HRP.

For CTSAQKASQVAEEAADC (modifications not checked) [EspB cyclic peptide #49 (positions 193-207)], the IC50 (read off the curve) with mAb-EspB-B7 stood at 0.8 µg/mL.

B1: mAb-EspB-B7 (antibody, V domains shown)
VH: EVQLLESGGGLVQPGGSLRLSCAASGFTFSHYAMNWVRQAPGKGLEWVSAINSNGDSTYYPDTVKDRFTISRDNSKNTLYLQMNSLRAEDTAVYYCARDRRAGYFDYWGQGTLVTVSS
VL: DIVLTQPPSASGTPGQRVTISCSGSRDNIGKNYVSWYQQLPGTAPKLLIYRNNQRPSGVPDRFSGSKSGTSASLAISGLRSEDEADYYCSAWDTSLNAYVFGPGTQLTVL
On to B1, for which the concentration for a half-maximal effect (EC50 (read off the curve)) in assay [1] and in assay [2] was 0.5 µg/mL in each case.
